In patent publication US20210002644, “ANTI-CHYMASE APTAMER AND USE FOR SAME” (RIBOMIC INC., published 2021):

T1: chymase (native, human skin mast cell) (Homo sapiens, UniProt P23946 P23946:22-247)
T1 sequence: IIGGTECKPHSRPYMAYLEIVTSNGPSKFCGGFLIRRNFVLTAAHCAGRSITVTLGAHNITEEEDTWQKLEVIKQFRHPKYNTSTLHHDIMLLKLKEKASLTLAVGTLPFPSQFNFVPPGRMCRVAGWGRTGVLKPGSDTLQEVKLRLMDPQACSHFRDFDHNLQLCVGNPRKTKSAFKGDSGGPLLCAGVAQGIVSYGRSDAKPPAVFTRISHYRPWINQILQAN

B1: SEQ ID NO: 33(1) (mixed)
RNA: AUGAUCGGACAUAACUAAUUAGGGGUGUCAA
modifications: idT-A(M)U(M)G(M)A(M)U(F)C(F)G(M)G(M)A(M)C(M)A(M)U(M)AAC(M)U(F)AAU(F)U(M)AG(M)GG(M)G(M)TG(M)U(M)C(M)A(M)A(M)-idT (F=2'-F, M=2'-OMe)
B2: SEQ ID NO: 33(2) (mixed)
RNA: B1 RNA
modifications: idT-A(M)U(M)G(M)A(M)U(F)C(F)G(M)G(M)A(M)C(F)A(M)U(M)AAC(M)U(F)AAU(F)U(M)AG(M)GG(M)G(M)TG(M)TC(M)A(M)A(M)-idT (F=2'-F, M=2'-OMe)
B3: SEQ ID NO: 33(3) (mixed)
RNA: B1 RNA
modifications: idT-A(PHE)U(M)G(M)A(M)U(F)C(F)G(M)G(M)A(M)C(M)A(M)U(M)AAC(M)U(F)A(M)A(M)U(F)U(M)A(M)G(M)GG(M)G(M)TG(M)U(M)C(M)A(M)A(M)-idT (F=2'-F, M=2'-OMe, PHE=8-(propyl)phenyl-rA)
B4: SEQ ID NO: 33(5) (mixed)
RNA: B1 RNA
modifications: idT-A(PHE)U(M)G(M)A(M)U(F)C(F)G(M)G(M)A(M)C(F)A(M)U(M)AAC(M)U(F)A(M)A(M)U(F)U(M)A(M)G(M)GG(M)G(M)TG(M)U(M)C(M)A(M)A(M)-idT (F=2'-F, M=2'-OMe, PHE=8-(propyl)phenyl-rA)
B5: SEQ ID NO: 33(4) (mixed)
RNA: B1 RNA
modifications: idT-A(PHE)U(M)G(M)A(M)U(F)C(F)G(M)G(M)A(M)C(F)A(M)U(M)AAC(M)U(F)A(M)A(M)U(F)U(M)A(M)G(M)GG(M)G(M)TG(M)TC(M)A(M)A(M)-idT (F=2'-F, M=2'-OMe, PHE=8-(propyl)phenyl-rA; printed 1J(F) read as U(F))
B6: SEQ ID NO: 17(2) (ssRNA)
RNA: GAUGAUCGGACAUAACAUUGUUGGGGUGUCAA
modifications: idT-G(M)A(M)U(F)G(M)A(M)U(F)C(F)G(M)G(M)A(M)C(F)A(M)U(F)AAC(F)AU(F)U(F)G(M)U(F)U(F)G(M)GG(M)G(M)U(F)G(M)U(F)C(F)A(M)A(M)-idT (F=2'-F, M=2'-OMe)
B7: SEQ ID NO: 17(18) (mixed)
RNA: B6 RNA
modifications: idT-G(M)A(M)U(F)G(M)A(M)U(F)C(F)G(M)G(M)A(M)C(F)A(M)U(F)sAAC(F)A(M)TTG(M)U(F)U(F)G(M)GG(M)G(M)TG(M)TCA(M)A(M)-idT (F=2'-F, M=2'-OMe, s=PS)
B8: SEQ ID NO: 17(15) (mixed)
RNA: B6 RNA
modifications: idT-G(M)A(PHE)U(F)G(M)A(M)U(F)C(F)G(M)G(M)A(M)C(F)A(M)U(F)AAC(F)A(M)TTG(M)U(F)U(F)G(M)GG(M)G(M)TG(M)TCA(M)A(M)-idT (F=2'-F, M=2'-OMe, PHE=8-(propyl)phenyl-rA)
B9: SEQ ID NO: 17(12) (mixed)
RNA: B6 RNA
modifications: X-S-G(M)A(M)U(F)G(M)A(M)U(F)C(F)G(M)G(M)A(M)C(F)A(M)U(F)AAC(F)A(M)TTG(M)U(F)U(F)G(M)GG(M)G(M)TG(M)TCA(M)A(M)-idT (F=2'-F, M=2'-OMe; X=Phe-Cys peptide, S=thiol)
B10: SEQ ID NO: 17(20) (mixed)
RNA: B6 RNA
modifications: idT-G(M)A(M)U(F)G(M)A(M)U(F)C(F)G(M)G(M)A(M)C(F)A(M)U(F)AAsC(F)A(M)TTG(M)U(F)U(F)G(M)GG(M)G(M)TG(M)TCA(M)A(M)-idT (F=2'-F, M=2'-OMe, s=PS)
B11: SEQ ID NO: 17(13) (mixed)
RNA: B6 RNA
modifications: Y-S-G(M)A(M)U(F)G(M)A(M)U(F)C(F)G(M)G(M)A(M)C(F)A(M)U(F)AAC(F)A(M)TTG(M)U(F)U(F)G(M)GG(M)G(M)TG(M)TCA(M)A(M)-idT (F=2'-F, M=2'-OMe; Y=Cys-Phe peptide, S=thiol)
B12: SEQ ID NO: 17(10) (mixed)
RNA: B6 RNA
modifications: idT-G(M)A(M)U(F)G(M)A(M)U(F)C(F)G(M)G(M)A(M)C(F)A(M)U(F)AAC(F)A(M)TTG(M)U(M)U(F)G(M)GG(M)G(M)TG(M)TCA(M)A(M)-idT (F=2'-F, M=2'-OMe)
B13: SEQ ID NO: 17(7) (mixed)
RNA: B6 RNA
modifications: idT-G(M)A(M)TG(M)A(M)U(F)C(F)G(M)G(M)A(M)CA(M)U(F)AAC(F)A(M)TTG(M)U(F)U(F)G(M)GG(M)G(M)TG(M)TCA(M)A(M)-idT (F=2'-F, M=2'-OMe; printed LT(F) read as U(F))
B14: SEQ ID NO: 17(23) (ssRNA)
RNA: B6 RNA
modifications: idT-G(M)A(PHE)U(F)G(M)A(M)U(F)C(F)G(M)G(M)A(M)C(F)A(M)U(F)AAC(F)AU(F)U(F)G(M)U(F)U(F)G(M)GG(M)G(M)U(F)G(M)U(F)C(F)A(M)A(M)-idT (F=2'-F, M=2'-OMe, PHE=8-(propyl)phenyl-rA)
B15: SEQ ID NO: 17(14) (mixed)
RNA: B6 RNA
modifications: idT-G(M)A(M)U(F)G(M)A(M)U(F)C(F)G(M)G(M)A(M)C(F)A(M)U(F)AAC(F)A(M)TTG(M)U(F)U(F)G(M)GG(M)G(M)TG(M)TCA(M)A(M)-S-Y (F=2'-F, M=2'-OMe; Y=Cys-Phe peptide, S=thiol)
B16: SEQ ID NO: 17(6) (mixed)
RNA: B6 RNA
modifications: idT-G(M)A(M)U(F)G(M)A(M)U(F)C(F)G(M)G(M)A(M)C(F)A(M)U(F)AAC(F)A(M)TTG(M)U(F)U(F)G(M)GG(M)G(M)TG(M)TCA(M)A(M)-idT (F=2'-F, M=2'-OMe)
B17: SEQ ID NO: 17(19) (mixed)
RNA: B6 RNA
modifications: idT-G(M)A(M)U(F)G(M)A(M)U(F)C(F)G(M)G(M)A(M)C(F)A(M)U(F)AsAC(F)A(M)TTG(M)U(F)U(F)G(M)GG(M)G(M)TG(M)TCA(M)A(M)-idT (F=2'-F, M=2'-OMe, s=PS)
B18: SEQ ID NO: 17(4) (mixed)
RNA: B6 RNA
modifications: idT-G(M)A(M)U(F)G(M)A(M)U(F)C(F)G(M)G(M)A(M)C(F)A(M)U(F)AAC(F)ATTG(M)U(F)U(F)G(M)GG(M)G(M)U(F)G(M)U(F)C(F)A(M)A(M)-idT (F=2'-F, M=2'-OMe)
B19: SEQ ID NO: 17(5) (mixed)
RNA: B6 RNA
modifications: idT-G(M)A(M)U(F)G(M)A(M)U(F)C(F)G(M)G(M)A(M)C(F)A(M)U(F)AAC(F)ATTG(M)U(F)U(F)G(M)GG(M)G(M)TG(M)TCA(M)A(M)-idT (F=2'-F, M=2'-OMe)
B20: SEQ ID NO: 17(17) (mixed)
RNA: B6 RNA
modifications: idT-G(M)A(M)U(F)G(M)A(M)U(F)C(F)G(M)G(M)A(M)C(F)A(M)U(F)AAC(F)A(M)TTG(M)U(F)U(F)G(M)GG(M)G(M)TG(M)TCA(M)A(PHE)-idT (F=2'-F, M=2'-OMe, PHE=8-(propyl)phenyl-rA)
B21: SEQ ID NO: 17(8) (mixed)
RNA: B6 RNA
modifications: idT-G(M)A(M)U(F)G(M)A(M)U(F)C(F)G(M)G(M)A(M)C(F)A(M)U(M)AAC(F)A(M)TTG(M)U(F)U(F)G(M)GG(M)G(M)TG(M)TCA(M)A(M)-idT (F=2'-F, M=2'-OMe)
B22: SEQ ID NO: 17(11) (mixed)
RNA: B6 RNA
modifications: idT-G(M)A(M)U(F)G(M)A(M)U(F)C(F)G(M)G(M)A(M)C(F)A(M)U(F)AAC(F)A(M)TTG(M)U(F)U(M)G(M)GG(M)G(M)TG(M)TCA(M)A(M)-idT (F=2'-F, M=2'-OMe)
B23: SEQ ID NO: 17(21) (mixed)
RNA: B6 RNA
modifications: idT-G(M)A(M)U(F)G(M)A(M)U(F)C(F)G(M)G(M)A(M)C(F)A(M)U(F)AAC(F)A(M)TTG(M)U(F)U(F)G(M)GsG(M)G(M)TG(M)TCA(M)A(M)-idT (F=2'-F, M=2'-OMe, s=PS)
B24: SEQ ID NO: 17(16) (mixed)
RNA: B6 RNA
modifications: idT-G(M)A(M)U(F)G(M)A(M)U(F)C(F)G(M)G(M)A(M)C(F)A(M)U(F)AAC(F)A(M)TTG(M)U(F)U(F)G(M)GG(M)G(M)TG(M)TCA(PHE)A(M)-idT (F=2'-F, M=2'-OMe, PHE=8-(propyl)phenyl-rA)
B25: SEQ ID NO: 17(9) (mixed)
RNA: B6 RNA
modifications: idT-G(M)A(M)U(F)G(M)A(M)U(F)C(F)G(M)G(M)A(M)C(F)A(M)U(F)AAC(M)A(M)TTG(M)U(F)U(F)G(M)GG(M)G(M)TG(M)TCA(M)A(M)-idT (F=2'-F, M=2'-OMe)

Legend:
[1] = target: T1, chymase (native, human skin mast cell); experiment: inhibition; angiotensin I substrate; settings: tags: Calbiochem Human Skin
Description: (§1) The total volume of solution for an enzyme reaction in the assay was set to 50 μL, and the reaction was performed in solution C buffer. At first, native (manufactured by Calbiochem) was diluted with solution C to give 5 μL thereof. Here, the native is chymase purified from human skin mast cell. The nucleic acid was serially diluted with solution C at a concentration of 0.0027-2 μM to give 25 μL thereof. The chymase solution (5 μL) and the nucleic acid solution (25 μL) were mixed, and the mixture was incubated at 37° C. for 5 min. On the other hand, […] angiotensin I (manufactured by PEPTIDE […], INC.) was prepared in solution C to give 20 μL thereof, which was incubated at 37° C. for 5 min. The angiotensin I solution was added to a mixture of chymase and nucleic acid to start an enzyme reaction. The final chymase concentration of the reaction solution was 0.5 nM, and the final substrate concentration was 50 μM. After reaction at 37° C. for 90 min, ice-cooled 30% trichloroacetic acid solution (25 μL) was added to quench the reaction. The whole mixture was centrifuged at 4° C., 14000 rpm for 10 min, and the supernatant (30 μL) was used for the next fluorescence induction reaction.
(§2) The above-mentioned supernatant (30 μL) was added to a 96 well plate (black, manufactured by Costar), a solution (15 μL) of 2% o-phthalaldehyde (manufactured by SIGMA) in methanol and 0.3M NaOH solution (170 μL) were added to each well, and the mixture was incubated at room temperature for 10 min. Then, 3M HCl solution (25 μL) was added to quench the reaction. The plate was set on a microplate reader SpectraMax190 (manufactured by Molecular device) and the fluorescence intensity was measured at an excitation wavelength of 355 nm and a fluorescence wavelength of 460 nm.
All nucleic acids of SEQ ID NO: 33(1)-33(18) were prepared by chemical synthesis. The aptamers shown by these sequences were measured by a method similar to the inhibitory activity evaluation method for chymase inhibitory activity shown in Example 1 by using angiotensin I as a substrate. In the Table, the IC₅₀ value is a mean of 2 or 3 measurements.

[2] = target: T1, chymase (native, human skin mast cell); experiment: inhibition; angiotensin I substrate; settings: tags: Calbiochem Human Skin; remark: listed apart in the source
Description: as §1, §2
All nucleic acids of SEQ ID NO: 17(1)-17(25) were prepared by chemical synthesis. In the evaluation of SEQ ID NO: 17(1)-17(25), a method similar to the evaluation method of inhibitory activity against chymase shown in Example 1 by using angiotensin I as a substrate was used for measurement. In the Table, the IC₅₀ value is a mean of 2 or 3 measurements.

Binder | IC50 [1] [nM] | IC50 [2] [nM]
B1 | 0.074 | –
B2 | 0.078 | –
B3 | 0.071 | –
B4 | 0.076 | –
B5 | 0.072 | –
B6 | – | 0.21
B7 | – | 0.15
B8 | – | 0.13
B9 | – | 0.19
B10 | – | 0.18
B11 | – | 0.16
B12 | – | 0.13
B13 | – | 0.17
B14 | – | 0.16
B15 | – | 0.19
B16 | – | 0.14
B17 | – | 0.19
B18 | – | 0.2
B19 | – | 0.17
B20 | – | 0.19
B21 | – | 0.13
B22 | – | 0.14
B23 | – | 0.19
B24 | – | 0.18
B25 | – | 0.16
